Data taken from patent US8461305B2, “L-fucose α1→6 specific lectin” (J-Oil Mills, Inc., priority 2008, dated 2013).

Legend:
[1] = frontal affinity chromatography (FAC), association constant to PA sugar chains having other L-fucose; type: binding; details: 25 degrees C.
How it was run: (§1)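 Lectin coupled via primary amines to NHS-activated sepharose in a miniature column, run in TBS (pH 7.4) at 0.125 ml/min and 25 degrees C. PA sugar chains (3.75 nM or 7.5 nM) applied in excess, with elution monitored by fluorescence (ex 310/em 380 nm). Ka calculated from front-end delay (V−Vo) versus PA rhamnose and effective ligand amount (Bt).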

[2] = frontal affinity chromatography (FAC), association constant to PA sugar chains without L-fucose; type: binding; details: 25 degrees C.
How it was run: as §1

B1: Pisum sativum agglutinin (protein)
chain: TETTSFLITKFSPDQQNLIFQGDGYTTKEKLTLTKAVKNTVGRALYSSPIHIWDRETGNVANFVTSFTFVINAPNSYNVADGFTFFIAPVDTKPQTGGGYLGVFNSAEYDKTTQTVAVEFDTFYNAAWDPSNRDRHIGIDVNSIKSVNTKSWKLQNGEEANVVIAFNAATNVLTVSLTYPNSLEEENVTSYTLSDVVSLKDVVPEWVRIGFSATTGAEYAAHEVLSWSFHSELSGTSSSKQAADA
**Q.** What does the source list for B1?
**A.** association constant Ka ([1]; Sugar chain No. 419): <1000 M⁻¹; association constant Ka ([1]; Sugar chain No. 420): <1000 M⁻¹; association constant Ka ([1]; Sugar chain No. 718): <1000 M⁻¹; association constant Ka ([1]; Sugar chain No. 719): <1000 M⁻¹; association constant Ka ([1]; Sugar chain No. 720): <1000 M⁻¹; association constant Ka ([1]; Sugar chain No. 721): <1000 M⁻¹; association constant Ka ([1]; Sugar chain No. 722): <1000 M⁻¹; association constant Ka ([1]; Sugar chain No. 723): <1000 M⁻¹; association constant Ka ([1]; Sugar chain No. 726): <1000 M⁻¹; association constant Ka ([1]; Sugar chain No. 727): <1000 M⁻¹; association constant Ka ([1]; Sugar chain No. 728 (as listed in Table 5/12)): <1000 M⁻¹; association constant Ka ([1]; Sugar chain No. 729): <1000 M⁻¹; association constant Ka ([1]; Sugar chain No. 730): <1000 M⁻¹; association constant Ka ([1]; Sugar chain No. 731): <1000 M⁻¹; association constant Ka ([1]; Sugar chain No. 739): <1000 M⁻¹; association constant Ka ([1]; Sugar chain No. 909): <1000 M⁻¹; association constant Ka ([1]; Sugar chain No. 910): <1000 M⁻¹; association constant Ka ([1]; Sugar chain No. 931): <1000 M⁻¹; association constant Ka ([1]; Sugar chain No. 932): <1000 M⁻¹; association constant Ka ([1]; Sugar chain No. 933): <1000 M⁻¹; association constant Ka ([2]; Sugar chain No. 001): <1000 M⁻¹; association constant Ka ([2]; Sugar chain No. 002): <1000 M⁻¹; association constant Ka ([2]; Sugar chain No. 003): 7800 M⁻¹; association constant Ka ([2]; Sugar chain No. 004): <1000 M⁻¹; association constant Ka ([2]; Sugar chain No. 005): 7400 M⁻¹; association constant Ka ([2]; Sugar chain No. 006): 7100 M⁻¹; association constant Ka ([2]; Sugar chain No. 007): 7800 M⁻¹; association constant Ka ([2]; Sugar chain No. 008): 10000 M⁻¹; association constant Ka ([2]; Sugar chain No. 009): 7900 M⁻¹; association constant Ka ([2]; Sugar chain No. 010): <1000 M⁻¹; association constant Ka ([2]; Sugar chain No. 011): <1000 M⁻¹; association constant Ka ([2]; Sugar chain No. 012): 17000 M⁻¹; association constant Ka ([2]; Sugar chain No. 013): <1000 M⁻¹; association constant Ka ([2]; Sugar chain No. 014): 8600 M⁻¹; association constant Ka ([2]; Sugar chain No. 101): <1000 M⁻¹; association constant Ka ([2]; Sugar chain No. 103): <1000 M⁻¹; association constant Ka ([2]; Sugar chain No. 104): <1000 M⁻¹; association constant Ka ([2]; Sugar chain No. 105): <1000 M⁻¹; association constant Ka ([2]; Sugar chain No. 107): <1000 M⁻¹; association constant Ka ([2]; Sugar chain No. 108): <1000 M⁻¹; association constant Ka ([2]; Sugar chain No. 301): <1000 M⁻¹; association constant Ka ([2]; Sugar chain No. 304): <1000 M⁻¹; association constant Ka ([2]; Sugar chain No. 305): <1000 M⁻¹; association constant Ka ([2]; Sugar chain No. 307): 2400 M⁻¹; association constant Ka ([2]; Sugar chain No. 308): <1000 M⁻¹; association constant Ka ([2]; Sugar chain No. 313): <1000 M⁻¹; association constant Ka ([2]; Sugar chain No. 314): <1000 M⁻¹; association constant Ka ([2]; Sugar chain No. 323): <1000 M⁻¹; association constant Ka ([2]; Sugar chain No. 501): <1000 M⁻¹; association constant Ka ([2]; Sugar chain No. 502): <1000 M⁻¹; association constant Ka ([2]; Sugar chain No. 503): <1000 M⁻¹; association constant Ka ([2]; Sugar chain No. 504): <1000 M⁻¹; association constant Ka ([2]; Sugar chain No. 701): <1000 M⁻¹; association constant Ka ([2]; Sugar chain No. 702): <1000 M⁻¹; association constant Ka ([2]; Sugar chain No. 703): <1000 M⁻¹; association constant Ka ([2]; Sugar chain No. 704): <1000 M⁻¹; association constant Ka ([2]; Sugar chain No. 705): <1000 M⁻¹; association constant Ka ([2]; Sugar chain No. 706): <1000 M⁻¹; association constant Ka ([2]; Sugar chain No. 707): <1000 M⁻¹; association constant Ka ([2]; Sugar chain No. 708): <1000 M⁻¹; association constant Ka ([2]; Sugar chain No. 709): <1000 M⁻¹; association constant Ka ([2]; Sugar chain No. 710): <1000 M⁻¹; association constant Ka ([2]; Sugar chain No. 711): <1000 M⁻¹; association constant Ka ([2]; Sugar chain No. 712): <1000 M⁻¹; association constant Ka ([2]; Sugar chain No. 713): <1000 M⁻¹; association constant Ka ([2]; Sugar chain No. 715): <1000 M⁻¹; association constant Ka ([2]; Sugar chain No. 716): <1000 M⁻¹; association constant Ka ([2]; Sugar chain No. 717): <1000 M⁻¹; association constant Ka ([2]; Sugar chain No. 724): <1000 M⁻¹; association constant Ka ([2]; Sugar chain No. 725): <1000 M⁻¹; association constant Ka ([2]; Sugar chain No. 728 (as listed in Table 7)): <1000 M⁻¹; association constant Ka ([2]; Sugar chain No. 732): <1000 M⁻¹; association constant Ka ([2]; Sugar chain No. 733): <1000 M⁻¹; association constant Ka ([2]; Sugar chain No. 734): <1000 M⁻¹; association constant Ka ([2]; Sugar chain No. 735): <1000 M⁻¹; association constant Ka ([2]; Sugar chain No. 736): <1000 M⁻¹; association constant Ka ([2]; Sugar chain No. 737): <1000 M⁻¹; association constant Ka ([2]; Sugar chain No. 738): <1000 M⁻¹; association constant Ka ([2]; Sugar chain No. 901): <1000 M⁻¹; association constant Ka ([2]; Sugar chain No. 902): <1000 M⁻¹; association constant Ka ([2]; Sugar chain No. 903): <1000 M⁻¹; association constant Ka ([2]; Sugar chain No. 905): <1000 M⁻¹; association constant Ka ([2]; Sugar chain No. 906): <1000 M⁻¹; association constant Ka ([2]; Sugar chain No. 907): <1000 M⁻¹
